This is an account of results in publication PMC5836512.

In one assay the target is Cul1-Rbx1 (Homo sapiens) (UniProt Q13616). As to conditions: cited from earlier work.
The target in the next assay is ^3xFLAGpIκBα (UniProt P25963). Briefly: co-IP.
Sequence of ^3xFLAGpIκBα (P25963 whole entry): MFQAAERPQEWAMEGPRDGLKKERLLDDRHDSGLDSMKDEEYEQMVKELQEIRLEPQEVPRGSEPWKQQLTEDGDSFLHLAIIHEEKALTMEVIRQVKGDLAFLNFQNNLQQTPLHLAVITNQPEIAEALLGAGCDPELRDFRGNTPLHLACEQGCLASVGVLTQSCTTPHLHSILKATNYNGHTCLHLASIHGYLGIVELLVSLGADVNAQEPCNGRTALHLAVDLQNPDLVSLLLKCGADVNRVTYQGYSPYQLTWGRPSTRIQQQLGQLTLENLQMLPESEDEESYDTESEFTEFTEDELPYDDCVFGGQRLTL

Sequence of Dcn1 (Q96GG9 whole entry): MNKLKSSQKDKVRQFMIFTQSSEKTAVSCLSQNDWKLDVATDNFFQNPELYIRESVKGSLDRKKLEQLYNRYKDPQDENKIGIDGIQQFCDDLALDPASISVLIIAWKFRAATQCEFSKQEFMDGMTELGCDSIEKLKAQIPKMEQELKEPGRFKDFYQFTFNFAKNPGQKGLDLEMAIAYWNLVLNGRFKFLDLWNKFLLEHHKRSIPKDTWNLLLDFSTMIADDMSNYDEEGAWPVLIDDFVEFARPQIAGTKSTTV

Turning to Dcn1 (from UniProt Q96GG9), the Kd with Cul1-Rbx1 (Homo sapiens) is 1800 nM.
“β-TrCP (from UniProt Q9Y297 1-605) (natural protein)”: in the assay with ^3xFLAGpIκBα, the off-rate constant (koff) worked out at 3.3e-05 s⁻¹.

For orientation: Kd means the equilibrium constant for the complex coming apart. Broadly, the koff is the rate constant with which the complex falls apart.
